Laboratory results: PMC2563036, “The HLH-6 Transcription Factor Regulates C. elegans Pharyngeal Gland Development and Function”

How the values were obtained:
HLH-2;HLH-3 = HLH-2;HLH-3 (Caenorhabditis elegans;Caenorhabditis …, UniProt G5EEG9;Q22717 1-399;1-170, |); experiment: EMSA; co-translated in reticulocyte lysate; poly(dI-dC); EMSA with poly(dI-dC) (37 ng/ug as printed); 5% native PAGE, 100 V, 1 h, room temperature, 45 mM Tris, 45 mM boric acid, 1 mM EDTA pH 8; binding buffer not given in the material; conditions: protein: ivt;ivt; tags: ;His; copies: 1;1; as annealed 5' overhangs of 2 nt (TG) on both strands; end labelled with Klenow, which may fill them in
Sequence of HLH-2;HLH-3 (G5EEG9 whole entry, chain 1 of 2): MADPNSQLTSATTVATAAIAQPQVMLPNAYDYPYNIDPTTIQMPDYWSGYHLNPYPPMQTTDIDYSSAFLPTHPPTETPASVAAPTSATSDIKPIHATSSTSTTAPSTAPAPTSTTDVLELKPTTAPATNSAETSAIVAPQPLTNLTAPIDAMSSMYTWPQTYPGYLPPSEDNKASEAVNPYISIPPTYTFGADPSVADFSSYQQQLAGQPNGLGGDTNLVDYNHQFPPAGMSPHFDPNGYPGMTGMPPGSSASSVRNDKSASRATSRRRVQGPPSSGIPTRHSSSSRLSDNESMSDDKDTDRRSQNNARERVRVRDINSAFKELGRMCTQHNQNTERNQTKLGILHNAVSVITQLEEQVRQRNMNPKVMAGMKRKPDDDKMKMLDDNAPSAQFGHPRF
Sequence of HLH-2;HLH-3 (Q22717 whole entry, chain 2 of 2): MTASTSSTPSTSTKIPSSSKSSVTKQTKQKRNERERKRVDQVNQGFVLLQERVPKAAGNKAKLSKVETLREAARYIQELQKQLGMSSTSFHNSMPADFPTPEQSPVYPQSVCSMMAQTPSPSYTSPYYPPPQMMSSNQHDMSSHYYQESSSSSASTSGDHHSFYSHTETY

HLH-2;HLH-6 = HLH-2;HLH-6 (Caenorhabditis elegans;Caenorhabditis …, UniProt G5EEG9;Q10007 1-399;1-268, |); experiment: EMSA; reticulocyte lysate; poly(dI-dC); no shift though both proteins expressed; EMSA with poly(dI-dC) (37 ng/ug as printed); 5% native PAGE, 100 V, 1 h, room temperature, 45 mM Tris, 45 mM boric acid, 1 mM EDTA pH 8; binding buffer not given in the material; conditions: protein: ivt;ivt; tags: ;; copies: 1;1; as annealed 5' overhangs of 2 nt (TG) on both strands; end labelled with Klenow, which may fill them in
Sequence of HLH-2;HLH-6 (G5EEG9 whole entry, chain 1 of 2): as the sequence (G5EEG9 whole entry, chain 1 of 2) above
Sequence of HLH-2;HLH-6 (Q10007 whole entry, chain 2 of 2): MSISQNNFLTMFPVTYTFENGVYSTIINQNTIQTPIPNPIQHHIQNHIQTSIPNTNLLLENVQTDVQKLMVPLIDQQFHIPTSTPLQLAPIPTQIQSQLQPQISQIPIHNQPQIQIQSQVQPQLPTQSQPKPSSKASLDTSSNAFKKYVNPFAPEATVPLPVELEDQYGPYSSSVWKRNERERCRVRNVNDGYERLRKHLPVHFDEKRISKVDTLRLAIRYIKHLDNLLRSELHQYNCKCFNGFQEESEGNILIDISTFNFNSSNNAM

B1: phat-3 PGM1 probe (oGD137/oGD138) (dsDNA)
DNA 1: TGCAAACTTGATGCACCTGTTCAAATGTATGCCC
DNA 2: TGGGGCATACATTTGAACAGGTGCATCAAGTTTG
B1: binds (HLH-2;HLH-3); no binding (HLH-2;HLH-6).
